Source: US20070056058A1 (TARGETED GROWTH, published 2007)
Where a chain is given by its changes, count along the chain named. In names and notes the source's numbering stands.

Assays:
[1] = target: AtcyclinD2;1/AtCDKA active kinase complex (Arabidopsis) (UniProt P42752); test: cell-based or functional assay
[2] = target: T1, AtcyclinD2;1/AtCDKA active kinase complex (Arabidopsis, UniProt P42752 1-361; P24100 1-294); test: cell-based or functional assay
[3] = target: T1, AtcyclinD2;1/AtCDKA active kinase …; test: in vitro binding experiments
[4] = target: T2, Arabidopsis cyclin D2;1 (AtcyclinD2;1), FLAG tagged (Arabidopsis, UniProt P42752 1-361); test: in vitro binding, graded (column Cyclin binding)
T2 construct: Made in Sf9 insect cells from the pAcHLT transfer vector; used as insect cell protein extract
T2 sequence: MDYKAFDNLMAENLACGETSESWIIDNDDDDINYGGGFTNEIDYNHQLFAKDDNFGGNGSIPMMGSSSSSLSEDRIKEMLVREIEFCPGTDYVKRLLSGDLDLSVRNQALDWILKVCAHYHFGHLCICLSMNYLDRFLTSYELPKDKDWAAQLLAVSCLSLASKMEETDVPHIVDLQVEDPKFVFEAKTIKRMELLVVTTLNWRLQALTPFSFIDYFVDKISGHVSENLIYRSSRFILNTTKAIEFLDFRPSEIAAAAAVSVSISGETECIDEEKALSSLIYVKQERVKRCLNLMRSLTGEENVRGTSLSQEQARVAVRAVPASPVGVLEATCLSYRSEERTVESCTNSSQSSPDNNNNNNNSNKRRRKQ

AtcyclinD2;1/AtCDKA active kinase complex (Arabidopsis), sequence (P24100 other isoform, or with tags, fused parts or gaps limits assumed): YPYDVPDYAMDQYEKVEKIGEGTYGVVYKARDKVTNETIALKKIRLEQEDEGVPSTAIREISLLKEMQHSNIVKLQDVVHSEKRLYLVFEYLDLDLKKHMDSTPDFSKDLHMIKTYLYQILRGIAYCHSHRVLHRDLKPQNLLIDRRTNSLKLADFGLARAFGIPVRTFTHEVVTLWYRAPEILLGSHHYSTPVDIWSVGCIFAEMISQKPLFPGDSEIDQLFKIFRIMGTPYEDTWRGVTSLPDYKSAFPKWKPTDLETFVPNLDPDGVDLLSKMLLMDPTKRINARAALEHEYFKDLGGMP
T1 sequence (P24100 other isoform, or with tags, fused parts or gaps limits assumed): as above

Molecule: BnKrp1 Y149A; F151A; F153A, construct #598
- kinase activity restored by 5 µg mutant in the presence of 0.6 µg wild-type KRP1 [1]: < 55%
- kinase activity restored by 10 µg mutant in the presence of wild-type KRP1 [1]: < 80%

Molecule: BnKrp1 #462 (E129A, E130A, I131A, D132A), cyclin binding region mutant
- IC50 (inhibitory concentration that reduces the kinase activity by 50%) [1]: 1.25 µg

Molecule: BnKrp1 E164A; W165A, construct #555
- kinase activity restored by 5 µg mutant in the presence of wild-type KRP1 [1]: 14%
- kinase activity restored by 10 µg mutant in the presence of wild-type KRP1 [1]: 15%

Molecule: ZmKRP4 (maize KRP, Genbank accession # AY986792)
- IC50 of kinase inhibition [1]: 0.035 µg

B1: BnKRP1 wild type (Brassica napus Krp1), construct BnKrp #461 (other, not shown: small tags and cut ends)
chain: MVRKCRKTKGTVGASSTYMQLRSRRIVYRSEKASSSSSSCCASNNNGVIDLEEERDGETETSSCRRSSKRKLFENLREKESMENSQQIVAGFDSAVKESSDCCCSRRTSLSTTEEKGKSATEQPPTAVEIEDFFVEAEKQLHDNFKKKYNFDFEKEKPLEGRYEWVKL
- IC50 (inhibitory concentration that reduces the kinase activity by 50%) [2]: 0.035 µg

B2: BnKrp1 Y149A, construct #587 (other)
chain: B1 chain with Y149A
notes: also called BnKrp1 #587; not shown: N-terminal 6xHis and poly-Myc tags of pET16b-5MYC
- binding result [3]: binds

B3: BnKrp1 F151A, construct #572 (other)
chain: B1 chain with F151A
notes: also called BnKrp1 #572; not shown: N-terminal 6xHis and poly-Myc tags of pET16b-5MYC
- binding result [4]: binds
- binding result [3]: binds
